# Data: the RNAGym collection of RNA variant scans (doi:10.7554/elife.80360)
# B1: Hammerhead Ribozyme (parent)
# chain: ACCGGAUGUGCUUUCCGGUCUGAUGAGUCCGUGAGGACGAAACAG
# Variants of: B1
# Test: self-cleavage, relative activity (ratio to wild type); higher = more cleavage; co-transcriptional
row,Variant,self-cleavage
1,ACCGGAUGUGCUUUCAGGUAUGAUGAGUCCGUGAGGACGAAACAG,0.474
2,AACGGAUGUGCUUUCCGGUCUGAUGAGUCCGUGAGGACGACACAG,0.366
3,ACCGGAUGUGCUUUCCGGUCUCAUGAGUCCGUGAGGACGACACAG,0.321
4,GCCGGAUGUGUUUUCCGGUCUGAUGAGUCCGUGAGGACGAAACAG,1.33
5,ACCGGGUGUGCUUUGCGGUCUGAUGAGUCCGUGAGGACGAAACAG,0.54
6,ACCGGAUGUACUUUCCGGUCUGAUGAGUCCGUCAGGACGAAACAG,0.959
7,ACCGGAUGUGCUUUCCGGUCUGAUGAGUCCGAGAGGACUAAACAG,0.366
8,ACCGGAUGCGCUUUCCGGUCUGAUGUGUCCGUGAGGACGAAACAG,0.671
9,AUCGGAUGUGCUUUCCGGUCUGAUGAGUCCGUGAGGACGAAACAC,0.868
10,ACCGGAUGUGCUUUCCGGUCUGAUGAGUCCGUGAGUACGAAAAAG,0.36
11,ACCGGAUGUGCUUUCCGGUCUGAUGAGUCCGUGAGUACGAAAUAG,0.304
12,ACCAGAUGUGCUGUCCGGUCUGAUGAGUCCGUGAGGACGAAACAG,0.616
13,ACCGGAUGUGCUUUCCGGUCUUAUGAGUCCGCGAGGACGAAACAG,0.272
14,ACCGGAUGUGCUUUCCGGUCUGAUGAGACCGUGAGGACGUAACAG,0.41
15,ACUUGAUGUGCUUUCCGGUCUGAUGAGUCCGUGAGGACGAAACAG,0.302
16,ACCGGAUGUGCUUUCCGGUAUGAUGAGUCCAUGAGGACGAAACAG,0.576
17,ACCGGAUGUGCUUUCCGUUCUGAUGAGUCCGUGAGCACGAAACAG,0.308
18,ACCGGAUGUACUUUCCGGUCUGAUGAAUCCGUGAGGACGAAACAG,0.94
19,AUCGGAUGUGCUUUCCGGUCUGAUGAGUCCGUGAGGACGAGACAG,0.389

row,Variant,self-cleavage
1,ACCGGAUGUGCUUUCCGGUCUGAUGAUGCCGUGAGGACGAAACAG,0.507
2,ACCGGGUGUGCUUUCCGGUCUGAUGAGUCCGUGAGGACAAAACAG,0.31
3,ACCGGAUGUGCUUUCCGGACUGAUGAGUCCGUGAGGACGAAACAU,0.41
4,ACCGGAUGUGCUUUCCGGUCUUAUGAGUCCGUGAGGACGAAACUG,0.335
5,ACCGGAUGUGCUUUCCGGUCUGAUGAGUCCGUUAGGACGAGACAG,0.354
6,ACCGGAUGUGACUUCCGGUCUGAUGAGUCCGUGAGGACGAAACAG,1.08
7,ACCGGAUGUGCGUUCCGGUCUGAUGAGUCUGUGAGGACGAAACAG,0.983
8,ACCGGAUGUGCUUUCCGGUCUGAUGAGGCUGUGAGGACGAAACAG,0.83
9,AACGGAUGUGCUUUCCGGUCUUAUGAGUCCGUGAGGACGAAACAG,0.34
10,ACCGGAUGUGCUUUCCUGUCUGAUGGGUCCGUGAGGACGAAACAG,0.33
11,ACCGGAUGUGCUUUCCGGUCAGAUGAGUCCGGGAGGACGAAACAG,0.515
12,ACCGGAUGUGCUUUCAGGUCUGAUGAGUCCGUGAGGACGAAGCAG,0.296
13,ACCGGAUCGGCUUUCCGGUCUGAUGAGUCCGUGAGGACGAAACAG,0.771
14,ACCGGAUGUGCUUUCCGGUCUGAUGACUCCGUGAGCACGAAACAG,0.257
15,ACCGGAUGUGCUUUCCGCUCUGAUGAGUCCGUGAGGGCGAAACAG,0.398
16,ACCGUAUGUGCUUUCCGGUCUGAUGAGUCCAUGAGGACGAAACAG,1.25
17,ACCGGAUGAGAUUUCCGGUCUGAUGAGUCCGUGAGGACGAAACAG,1.19
18,AGCGGAUGUGCUGUCCGGUCUGAUGAGUCCGUGAGGACGAAACAG,0.332
19,ACCGGAUGUGCGUUCCGCUCUGAUGAGUCCGUGAGGACGAAACAG,0.61

row,Variant,self-cleavage
1,ACCGGUUGUGCUUUCCGGUCUAAUGAGUCCGUGAGGACGAAACAG,0.289
2,ACCGAAUGUGCGUUCCGGUCUGAUGAGUCCGUGAGGACGAAACAG,1.31
3,ACCGGAUGUCCUUUCCGGUCUGAUGAGUCCGUGAGGACGAAAAAG,0.354
4,AACGCAUGUGCUUUCCGGUCUGAUGAGUCCGUGAGGACGAAACAG,0.288
5,ACCGGAUGUGCUUUCCGGUCUGAUGAGCCCGUGAGGAGGAAACAG,0.575
6,ACCGGAUGUGCUUUCGGGUCUGAUGAGUCCGUGAAGACGAAACAG,0.459
7,AGCGGAUGUGCUUUCCGGUCUGAUGAGUCCGUGAGGACGAAACAU,0.335
8,ACCGGAUGUGCUUUCCGGUCGGAUGAGUCCGUGUGGACGAAACAG,0.348
9,ACCGGAUGUGCUUUCCGGUCUGAUGGGUCCUUGAGGACGAAACAG,0.516
10,ACCGGAUGUGCUUUCCGGUCUGAUAAGUCCUUGAGGACGAAACAG,0.416
11,ACCGGAUGUGCUUUACGGUCUGAUGAGUCCGUGAGGAAGAAACAG,0.501
12,ACCGGAUGUGCUUUCCGGUCUGAUGAGUCCAUGAGGCCGAAACAG,1.17
13,ACCGGAUGUGCUAUCCGGUCUGAUGAGCCCGUGAGGACGAAACAG,1.58
14,ACCGGAUGUGCUUUCCGGUCUGAUGAGUCCGUGCUGACGAAACAG,0.58
15,ACCAGAUGUGCUUUCCGGUCUGUUGAGUCCGUGAGGACGAAACAG,0.356
16,ACCGGAUGUGCUAUCCGAUCUGAUGAGUCCGUGAGGACGAAACAG,1.17
17,ACCGGAUGUGCUUUCCCGUCUGAUGCGUCCGUGAGGACGAAACAG,0.355
18,ACCGGAUGUGCUUUCCGCUCUGAUGAGUCCCUGAGGACGAAACAG,0.548
19,ACCGGAUGUGCUUUCCGGUCUGAUGAGUCCGUGAGCAUGAAACAG,0.335
